Patent US20250313641A1

Molecular target: cynomolgus monkey IL-2 receptor (IL-2R) on cyno PBMC subsets (cynomolgus monkey) (UniProt Q38J85)
Test: cell-based or functional assay

cynomolgus monkey IL-2 receptor (IL-2R) on cyno PBMC subsets (cynomolgus monkey), sequence (Q38J85 27-551, chain 1 of 2): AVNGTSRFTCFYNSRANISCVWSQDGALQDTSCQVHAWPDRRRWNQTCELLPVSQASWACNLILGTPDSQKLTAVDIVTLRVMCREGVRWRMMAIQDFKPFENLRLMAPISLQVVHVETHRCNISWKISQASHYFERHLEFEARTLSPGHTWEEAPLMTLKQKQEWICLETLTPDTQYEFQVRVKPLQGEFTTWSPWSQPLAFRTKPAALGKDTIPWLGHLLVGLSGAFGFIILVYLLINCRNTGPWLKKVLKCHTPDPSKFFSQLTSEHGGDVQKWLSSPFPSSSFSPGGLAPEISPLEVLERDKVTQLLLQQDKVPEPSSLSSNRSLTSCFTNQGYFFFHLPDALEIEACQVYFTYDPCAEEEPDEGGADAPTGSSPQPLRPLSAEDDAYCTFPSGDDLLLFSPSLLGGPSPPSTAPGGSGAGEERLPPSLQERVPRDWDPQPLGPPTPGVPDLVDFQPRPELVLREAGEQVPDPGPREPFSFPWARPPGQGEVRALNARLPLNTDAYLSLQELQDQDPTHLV
cynomolgus monkey IL-2 receptor (IL-2R) on cyno PBMC subsets (cynomolgus monkey), sequence (chain, as listed by the source, chain 2 of 2): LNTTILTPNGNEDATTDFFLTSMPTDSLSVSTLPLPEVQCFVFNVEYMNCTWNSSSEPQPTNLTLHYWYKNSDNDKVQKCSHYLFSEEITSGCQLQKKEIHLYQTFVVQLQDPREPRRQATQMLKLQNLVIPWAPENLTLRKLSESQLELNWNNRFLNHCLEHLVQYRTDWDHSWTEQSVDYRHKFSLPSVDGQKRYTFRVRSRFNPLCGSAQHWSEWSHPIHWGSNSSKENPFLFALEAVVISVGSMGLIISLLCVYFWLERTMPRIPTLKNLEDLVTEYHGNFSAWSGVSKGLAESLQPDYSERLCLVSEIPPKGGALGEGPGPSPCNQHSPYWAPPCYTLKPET

Substance: Recombinant human IL-2 (from UniProt P60568 21-153) (ligand)
- Ki67 (Cyno) EC50 [nM], CD4^+ T cells: 0.01 nM
- Ki67 (Cyno) EC50 [nM], CD8^+ T cells: 0.05 nM
- Ki67 (Cyno) EC50 [nM], T-regs: 0.009 nM
- Ki67 (Cyno) Emax (%), CD4^+ T cells: 90%
- Ki67 (Cyno) Emax (%), CD8^+ T cells: 88%
- Ki67 (Cyno) Emax (%), NK cells: 92%
- Ki67 (Cyno) Emax (%), T-regs: 69%
